We go through 10 molecules from US20170082633A1 (WHITEHEAD INSTITUTE FOR BIOMEDICAL RESEARCH, published 2017).

Residue numbers refer to the chain shown, from its start. Names may count otherwise.

The target of experiment [1] is T1, endogenous Ragulator (UniProt Q6IAA8 2-161; Q9Y2Q5 1-125; Q9UHA4 1-124; Q0VGL1 1-99; O43504 1-91). The experiment can be described thus: co-immunoprecipitation from HEK-293T cells, immunoblot. Here is the method:
(§1) Transfection mixes were taken up to a total of 5 μg of DNA using empty pRK5. HEK-293T cells stably expressing FLAG-tagged proteins were rinsed once with ice-cold PBS and lysed in ice-cold lysis buffer (40 mM HEPES pH 7.4, 1% Triton X-100, 10 mM β-glycerol phosphate, 10 mM pyrophosphate, 2.5 mM MgC12 and 1 tablet of EDTA-free protease inhibitor (Roche) per 25 ml buffer). The soluble fractions from cell lysates were isolated by centrifugation at 13,000 rpm for 10 min in a microcentrifuge. […] Immunoprecipitates were washed three times with lysis buffer containing 500 mM NaCl. Immunoprecipitated proteins were denatured by the addition of 50 μL of sample buffer and incubation at RT for 30 min. It is critical that the samples containing SLC38A9 are neither boiled nor frozen prior to resolution by SDS-PAGE and analysis by immunoblotting. A similar protocol was employed when preparing samples for mass spectrometry.
On the technique in general: Immunoblotting shows a protein as a band on a membrane.

The target of experiment [2] is co-expressed epitope tagged Ragulator proteins (UniProt Q6IAA8 2-161; Q9Y2Q5 1-125; Q9UHA4 1-124; Q0VGL1 1-99; O43504 1-91). Described as above. The procedure:
as §1

For experiment [3], the target named is T1, endogenous Ragulator. Nature of the experiment: anti-FLAG co-immunoprecipitation from HEK-293T cells, immunoblot. The procedure: (§2) HEK-293T cells were cultured in DMEM supplemented with 10% inactivated fetal bovine serum, penicillin (100 IU/mL), and streptomycin (100 μg/mL) and maintained at 37° C. and 5% CO₂. Two million HEK-293T cells were plated in 10 cm culture dishes.
as §1

Experiment [4] deals with T2, endogenous RagC (UniProt Q9HB90 2-399).
T2 construct: Detected by immunoblot in anti-FLAG immunoprecipitates; also called RagC GTPase
Nature of the experiment: FLAG IP from transfected HEK-293T cells, immunoblot. Here is the method: as §2, §1

In another experiment the target is T3, endogenous p14 (UniProt Q9Y2Q5 1-125).
T3 construct: Detected by immunoblot in anti-FLAG immunoprecipitates; also called LAMTOR2
The description is as above. Here is the method: as §2, §1

The target of experiment [5] is T4, endogenous p18 (UniProt Q6IAA8 2-161).
T4 construct: Detected by immunoblot in anti-FLAG immunoprecipitates; also called LAMTOR1
The experiment is described as above. Here is the method: as §2, §1

The target of a further experiment is T5, endogenous RagA (UniProt Q7L523 1-313).
T5 construct: Detected by immunoblot in anti-FLAG immunoprecipitates; also called RagA GTPase
The description is as above. Here is the method: as §2, §1

The target of experiment [6] is T4, endogenous p18. The experiment can be described thus: FLAG IP from HEK-293T cells stably expressing the bait, immunoblot. The procedure:
as §1

Experiment [7] concerns the target T2, endogenous RagC. The description is as above. Here is the method: as §1

T2 sequence (Q9HB90 2-399 limits assumed): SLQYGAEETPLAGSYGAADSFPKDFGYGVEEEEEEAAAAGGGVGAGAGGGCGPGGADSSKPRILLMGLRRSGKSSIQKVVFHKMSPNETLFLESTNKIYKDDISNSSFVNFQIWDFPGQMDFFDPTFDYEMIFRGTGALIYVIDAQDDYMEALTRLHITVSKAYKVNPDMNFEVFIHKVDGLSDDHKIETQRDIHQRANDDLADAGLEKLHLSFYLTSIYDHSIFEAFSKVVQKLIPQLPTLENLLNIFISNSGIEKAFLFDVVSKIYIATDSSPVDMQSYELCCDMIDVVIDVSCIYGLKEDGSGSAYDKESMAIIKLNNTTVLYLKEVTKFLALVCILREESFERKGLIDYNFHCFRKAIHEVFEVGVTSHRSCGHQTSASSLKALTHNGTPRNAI
T5 sequence (Q7L523 whole entry): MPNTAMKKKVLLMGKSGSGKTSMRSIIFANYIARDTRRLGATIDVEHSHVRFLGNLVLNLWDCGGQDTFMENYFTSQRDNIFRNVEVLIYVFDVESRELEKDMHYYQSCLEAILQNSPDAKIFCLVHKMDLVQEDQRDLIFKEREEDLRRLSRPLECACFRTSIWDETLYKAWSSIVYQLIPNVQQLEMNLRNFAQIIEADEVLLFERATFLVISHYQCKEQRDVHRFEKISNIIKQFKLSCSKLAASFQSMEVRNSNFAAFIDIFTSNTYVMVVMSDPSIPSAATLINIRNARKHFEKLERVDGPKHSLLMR

B1: FLAG-SLC38A9.1 Δ110 (other)
chain: DYKDDDDKTEGYGKNTSLVTIFMIWNTMMGTSILSIPWGIKQAGFTTGMCVIILMGLLTLYCCYRVVKSRTMMFSLDTTSWEYPDVCRHYFGSFGQWSSLLFSLVSLIGAMIVYWVLMSNFLFNTGKFIFNFIHHINDTDTILSTNNSNPVICPSAGSGGHPDNSSMIFYANDTGAQQFEKWWDKSRTVPFYLVGLLLPLLNFKSPSFFSKFNILGTVSVLYLIFLVTFKAVRLGFHLEFHWFIPTEFFVPEIRFQFPQLTGVLTLAFFIHNCIITLLKNNKKQENNVRDLCIAYMLVTLTYLYIGVLVFASFPSPPLSKDCIEQNFLDNFPSSDTLSFIARIFLLFQMMTVYPLLGYLARVQLLGHIFGDIYPSIFHVLILNLIIVGAGVIMACFYPNIGGIIRYSGAACGLAFVFIYPSLIYIISLHQEERLTWPKLIFHVFIIILGVANLIVQFFM
notes: also called SLC38A9 Δ110
Turning to B1, the binding result (in the experiment with endogenous Ragulator [1]; in [2]) was “no binding” in each case.

B2: FLAG-SLC38A9.1 (other)
chain: DYKDDDDKMANMNSDSRHLGTSEVDHERDPGPMNIQFEPSDLRSKRPFCIEPTNIVNVNHVIQRVSDHASAMNKRIHYYSRLTTPADKALIAPDHVVPAPEECYVYSPLGSAYKLQSYTEGYGKNTSLVTIFMIWNTMMGTSILSIPWGIKQAGFTTGMCVIILMGLLTLYCCYRVVKSRTMMFSLDTTSWEYPDVCRHYFGSFGQWSSLLFSLVSLIGAMIVYWVLMSNFLFNTGKFIFNFIHHINDTDTILSTNNSNPVICPSAGSGGHPDNSSMIFYANDTGAQQFEKWWDKSRTVPFYLVGLLLPLLNFKSPSFFSKFNILGTVSVLYLIFLVTFKAVRLGFHLEFHWFIPTEFFVPEIRFQFPQLTGVLTLAFFIHNCIITLLKNNKKQENNVRDLCIAYMLVTLTYLYIGVLVFASFPSPPLSKDCIEQNFLDNFPSSDTLSFIARIFLLFQMMTVYPLLGYLARVQLLGHIFGDIYPSIFHVLILNLIIVGAGVIMACFYPNIGGIIRYSGAACGLAFVFIYPSLIYIISLHQEERLTWPKLIFHVFIIILGVANLIVQFFM
notes: Lysosomal membrane amino acid transporter, expressed in HEK-293T cells and immunoprecipitated from Triton X-100 lysate with anti-FLAG gel; also called SLC38A9 isoform 1; full-length SLC38A9
On to B2, for which the binding result with endogenous Ragulator [3] is on record as “binds”.

B3: FLAG-LAMP1 (other)
chain: DYKDDDDKAMFMVKNGNGTACIMANFSAAFSVNYDTKSGPKNMTFDLPSDATVVLNRSSCGKENTSDPSLVIAFGRGHTLTLNFTRNATRYSVQLMSFVYNLSDTHLFPNASSKEIKTVESITDIRADIDKKYRCVSGTQVHMNNVTVTLHDATIQAYLSNSSFSRGETRCEQDRPSPTTAPPAPPSPSPSPVPKSPSVDKYNVSGTNGTCLLASMGLQLNLTYERKDNTTVTRLLNINPNKTSASGSCGAHLVTLELHSEGTTVLLFQFGMNASSSRFFLQGIQLNTILPDARDPAFKAANGSLRALQATVGNSYKCNAEEHVRVTKAFSVNIFKVWVQAFKVEGGQFGSVEECLLDENSMLIPIAVGGALAGLVLIVLIAYLVGRKRSHAGYQTI
notes: Control lysosomal membrane protein
In the case of B3, the binding result with endogenous RagC [4] was “no binding”.

B4: FLAG-SLC38A9.4 (other)
chain: DYKDDDDKLVTIFMIWNTMMGTSILSIPWGIKQAGFTTGMCVIILMGLLTLYCCYRVVKSRTMMFSLDTTSWEYPDVCRHYFGSFGQWSSLLFSLVSLIGAMIVYWVLMSNFLFNTGKFIFNFIHHINDTDTILSTNNSNPVICPSAGSGGHPDNSSMIFYANDTGAQQFEKWWDKSRTVPFYLVGLLLPLLNFKSPSFFSKFNILGTVSVLYLIFLVTFKAVRLGFHLEFHWFIPTEFFVPEIRFQFPQLTGVLTLAFFIHNCIITLLKNNKKQENNVRDLCIAYMLVTLTYLYIGVLVFASFPSPPLSKDCIEQNFLDNFPSSDTLSFIARIFLLFQMMTVYPLLGYLARVQLLGHIFGDIYPSIFHVLILNLIIVGAGVIMACFYPNIGGIIRYSGAACGLAFVFIYPSLIYIISLHQEERLTWPKLIFHVFIIILGVANLIVQFFM
notes: also called SLC38A9 isoform 4; isoform 4
With B4, the binding result (with endogenous Ragulator [1]; in [2]) was “no binding” throughout.

B5: FLAG-SLC38A9.1 L74A (other)
single chain: MANMNSDSRHLGTSEVDHERDPGPMNIQFEPSDLRSKRPFCIEPTNIVNVNHVIQRVSDHASAMNKRIHYYSRATTPADKALIAPDHVVPAPEECYVYSPLGSAYKLQSYTEGYGKNTSLVTIFMIWNTMMGTSILSIPWGIKQAGFTTGMCVIILMGLLTLYCCYRVVKSRTMMFSLDTTSWEYPDVCRHYFGSFGQWSSLLFSLVSLIGAMIVYWVLMSNFLFNTGKFIFNFIHHINDTDTILSTNNSNPVICPSAGSGGHPDNSSMIFYANDTGAQQFEKWWDKSRTVPFYLVGLLLPLLNFKSPSFFSKFNILGTVSVLYLIFLVTFKAVRLGFHLEFHWFIPTEFFVPEIRFQFPQLTGVLTLAFFIHNCIITLLKNNKKQENNVRDLCIAYMLVTLTYLYIGVLVFASFPSPPLSKDCIEQNFLDNFPSSDTLSFIARIFLLFQMMTVYPLLGYLARVQLLGHIFGDIYPSIFHVLILNLIIVGAGVIMACFYPNIGGIIRYSGAACGLAFVFIYPSLIYIISLHQEERLTWPKLIFHVFIIILGVANLIVQFFM
As to B5, the binding result with endogenous p14, with endogenous p18 [5], in the experiment with endogenous RagA and in the experiment with endogenous RagC [4] was “no binding” in each case.

B6: FLAG-SLC38A9.1 P90A (other)
single chain: B5 single chain with A74L, P90A
notes: Full-length mutant
Take B6: the binding result with endogenous p14, in the experiment with endogenous p18 [5], with endogenous RagA and in the experiment with endogenous RagC [4] was “no binding” in each case.

B7: FLAG-SLC38A9.1 Y71A (other)
single chain: B5 single chain with Y71A, A74L
notes: Full-length mutant
Turning to B7, the binding result in the experiment with endogenous p14, with endogenous p18 [5], with endogenous RagA and with endogenous RagC [4] was “no binding” in each case.

B8: FLAG-SLC38A9.1 P85A (other)
single chain: B5 single chain with A74L, P85A
notes: Full-length mutant
For B8, the binding result with endogenous p14, with endogenous p18 [5], with endogenous RagA and with endogenous RagC [4] was “no binding” each time.

B9: FLAG-N-terminal 119 fragment of SLC38A9.1 (other)
chain: DYKDDDDKMANMNSDSRHLGTSEVDHERDPGPMNIQFEPSDLRSKRPFCIEPTNIVNVNHVIQRVSDHASAMNKRIHYYSRLTTPADKALIAPDHVVPAPEECYVYSPLGSAYKLQSYTEGYGKNTS
For the molecule B9, the binding result with endogenous Ragulator [3], with endogenous RagA, with endogenous p18 [6] and in the experiment with endogenous RagC [7] was “binds” throughout.

B10: FLAG-SLC38A9.2 (other)
chain: DYKDDDDKMNKRIHYYSRLTTPADKALIAPDHVVPAPEECYVYSPLGSAYKLQSYTEGYGKNTSLVTIFMIWNTMMGTSILSIPWGIKQAGFTTGMCVIILMGLLTLYCCYRVVKSRTMMFSLDTTSWEYPDVCRHYFGSFGQWSSLLFSLVSLIGAMIVYWVLMSNFLFNTGKFIFNFIHHINDTDTILSTNNSNPVICPSAGSGGHPDNSSMIFYANDTGAQQFEKWWDKSRTVPFYLVGLLLPLLNFKSPSFFSKFNILGTVSVLYLIFLVTFKAVRLGFHLEFHWFIPTEFFVPEIRFQFPQLTGVLTLAFFIHNCIITLLKNNKKQENNVRDLCIAYMLVTLTYLYIGVLVFASFPSPPLSKDCIEQNFLDNFPSSDTLSFIARIFLLFQMMTVYPLLGYLARVQLLGHIFGDIYPSIFHVLILNLIIVGAGVIMACFYPNIGGIIRYSGAACGLAFVFIYPSLIYIISLHQEERLTWPKLIFHVFIIILGVANLIVQFFM
notes: also called SLC38A9 isoform 2; isoform 2
As to B10, the binding result (with endogenous Ragulator [1]; in experiment [2]) was “no binding” each time.
